What was measured:
[1] = molecular target: T1, B7-H2 (Y51A) mutant, full length with C terminal GFP tag, on 293T cells (human, UniProt O75144 19-302, The C-terminal GFP reporter is not carried in the letters.); assay: flow cytometry; ICOSIg binding to 293T cells expressing the mutant
T1 construct: not shown: C-terminal GFP tag and any linker to it
T1 sequence: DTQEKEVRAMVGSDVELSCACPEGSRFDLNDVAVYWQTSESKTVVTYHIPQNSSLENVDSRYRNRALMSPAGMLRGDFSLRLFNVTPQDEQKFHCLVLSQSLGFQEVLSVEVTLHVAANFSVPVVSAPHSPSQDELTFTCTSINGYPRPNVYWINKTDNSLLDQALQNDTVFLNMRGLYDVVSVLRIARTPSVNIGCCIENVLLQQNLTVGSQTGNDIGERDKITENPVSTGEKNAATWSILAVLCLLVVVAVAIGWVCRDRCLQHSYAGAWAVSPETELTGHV
Description: (§1) These residues were all converted to alanine, a small […] amino acid with neutral charge, to avoid a large overall structure modulation (16).

[2] = molecular target: T2, B7-H2 (Y53A) mutant, full length with C terminal GFP tag, on 293T cells (human, UniProt O75144 19-302, The C-terminal GFP reporter is not carried in the letters.); assay: as above
T2 construct: not shown: C-terminal GFP tag and any linker to it
T2 sequence: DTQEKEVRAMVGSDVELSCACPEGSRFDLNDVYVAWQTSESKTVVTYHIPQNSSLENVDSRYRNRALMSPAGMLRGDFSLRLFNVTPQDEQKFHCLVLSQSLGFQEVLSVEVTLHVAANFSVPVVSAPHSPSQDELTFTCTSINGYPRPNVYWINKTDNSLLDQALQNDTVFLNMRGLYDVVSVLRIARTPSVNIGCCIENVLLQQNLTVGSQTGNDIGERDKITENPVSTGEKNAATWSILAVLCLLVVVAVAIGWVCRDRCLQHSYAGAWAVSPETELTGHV
Description: as §1

[3] = molecular target: T3, human B7-1 (CD80) expressed on 293T cells (human, UniProt P33681 35-288); assay: CDS well image, 293T cells transfected with the human gene, stained with the human fusion protein
T3 construct: whole, on cells
T3 sequence (looked up): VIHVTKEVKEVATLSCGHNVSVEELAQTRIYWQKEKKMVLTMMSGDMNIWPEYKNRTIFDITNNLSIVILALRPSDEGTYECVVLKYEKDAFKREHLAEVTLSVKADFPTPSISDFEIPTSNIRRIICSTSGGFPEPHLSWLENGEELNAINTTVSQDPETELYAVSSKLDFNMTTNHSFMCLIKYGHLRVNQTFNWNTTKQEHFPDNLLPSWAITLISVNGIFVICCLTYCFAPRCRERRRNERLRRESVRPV

[4] = molecular target: T4, human B7-H1 expressed on 293T cells (human, UniProt Q9NZQ7 19-290); assay: as above
T4 construct: whole, on cells
T4 sequence (Q9NZQ7 19-290): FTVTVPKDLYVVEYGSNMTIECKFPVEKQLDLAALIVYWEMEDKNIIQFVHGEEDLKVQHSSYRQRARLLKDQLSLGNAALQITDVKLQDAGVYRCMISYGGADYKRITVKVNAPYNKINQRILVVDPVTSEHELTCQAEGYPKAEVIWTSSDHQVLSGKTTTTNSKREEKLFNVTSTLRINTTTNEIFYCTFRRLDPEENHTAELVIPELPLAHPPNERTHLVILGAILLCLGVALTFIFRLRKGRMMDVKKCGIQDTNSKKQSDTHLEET

[5] = molecular target: T5, human CD28, full length, expressed on cells (CD28+293T cells) (human, UniProt P10747 19-220); assay: as above
T5 construct: This id also stands for CD28 on purified human T cells in the functional rows; also called CD28+ cells
T5 sequence (P10747 19-220): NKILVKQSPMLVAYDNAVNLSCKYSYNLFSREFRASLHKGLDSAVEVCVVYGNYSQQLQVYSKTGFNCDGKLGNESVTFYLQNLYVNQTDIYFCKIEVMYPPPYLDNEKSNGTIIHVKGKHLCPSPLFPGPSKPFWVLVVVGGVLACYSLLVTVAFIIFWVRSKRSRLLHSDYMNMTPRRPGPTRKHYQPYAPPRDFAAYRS

[6] = molecular target: T6, human B7-DC expressed on 293T cells (human, UniProt Q9BQ51 20-273); assay: as above
T6 construct: whole, on cells
T6 sequence (looked up): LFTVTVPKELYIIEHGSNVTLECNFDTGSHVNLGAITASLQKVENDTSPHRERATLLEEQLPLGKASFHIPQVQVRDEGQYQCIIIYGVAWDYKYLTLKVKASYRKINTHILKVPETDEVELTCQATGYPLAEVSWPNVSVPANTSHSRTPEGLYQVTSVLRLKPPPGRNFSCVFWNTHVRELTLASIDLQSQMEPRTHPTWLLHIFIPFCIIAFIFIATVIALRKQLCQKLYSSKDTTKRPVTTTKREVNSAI

[7] = molecular target: T7, human ICOS, full length, expressed on cells (ICOS+293T cells) (human, UniProt Q9Y6W8 21-199); assay: as above
T7 construct: This id also stands for ICOS on human T cells in the functional rows
T7 sequence: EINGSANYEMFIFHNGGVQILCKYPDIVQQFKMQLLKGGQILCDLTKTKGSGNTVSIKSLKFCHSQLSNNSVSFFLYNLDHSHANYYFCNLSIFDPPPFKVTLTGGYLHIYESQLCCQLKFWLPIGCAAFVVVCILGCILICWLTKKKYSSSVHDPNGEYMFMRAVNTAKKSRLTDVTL

[8] = molecular target: T8, human B7-H2Ig fusion protein (human, UniProt O75144 19-258); assay: SPR (BIAcore 3000); ICOSIg injected over B7-H2Ig coupled to a CM5 chip; 1:1 interaction model
T8 construct: Ig (Fc) part not given
T8 sequence: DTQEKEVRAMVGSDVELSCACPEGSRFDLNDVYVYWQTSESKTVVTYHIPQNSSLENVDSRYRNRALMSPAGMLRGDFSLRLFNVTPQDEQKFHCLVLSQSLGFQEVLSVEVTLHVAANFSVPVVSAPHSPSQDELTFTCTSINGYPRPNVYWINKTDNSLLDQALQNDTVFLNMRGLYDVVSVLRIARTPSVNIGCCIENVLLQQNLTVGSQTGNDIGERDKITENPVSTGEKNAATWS
Protocol: For all experiments, the same fusion proteins were injected into uncoated control flow cells to serve as the control. Binding data was overlaid with the fit of 1:1 interaction model.
Surface Plasmon Resonance. Protein interactions were measured and analyzed on a BIAcore 3000 instrument (BIAcore AB, Uppsala, Sweden) performed at 25° C. as described previously 20. […] Hepes, pH 7.4, containing 0.15 M NaCl, 0.005% surfactant P20 (HBS) was used as running buffer. […] All other reagents were purchased from BIAcore. […] The remaining activated carboxyl groups were blocked with 1 M ethanolamine (pH 8.5). Subsequently, the flow cells were extensively washed with HBS to generate a stable baseline. […] The flow cells were regenerated by two consecutive 10-second pulses with 10 mM NaOH. Data was analyzed by BIAevaluation software 4.1 (BIAcore).

binding result [1]: no binding
binding result [2]: no binding
binding result [3]: no binding
binding result [4]: no binding
binding result [5]: no binding
binding result [6]: no binding
binding result [7]: no binding
koff [8]: 0.004 s⁻¹
kon [8]: 240000 M⁻¹ s⁻¹
B1: human ICOSIg fusion protein (Fc fusion)
chain: EINGSANYEMFIFHNGGVQILCKYPDIVQQFKMQLLKGGQILCDLTKTKGSGNTVSIKSLKFCHSQLSNNSVSFFLYNLDHSHANYYFCNLSIFDPPPFKVTLTGGYLHIYESQLCCQLKF
notes: Bought from R&D Systems; Ig (Fc) part not given
